Data reported in US20210079088A1 (published 2021).
Changes are numbered by the printed parent chain.

B1: L1000H1023 (antibody, V domains shown)
VH: EVQLVESGGGLVHPGGSLRLSCAGSGFTFSRNAMFWVRQAPGKGLEWVSGIGTGGATSYADSVKGRFTISRDNAKNSLYLQMNSLRAEDTAVYYCARGRYYFPWWGQGTLVTVSS
VL: not shown
B2: L1020H1031 (antibody, V domains shown)
VH: B1 VH with H13Q, G24A, P103D, W104Y
VL: EIVLTQSPGTLSLSPGERATLSCRASQSVSSSYLAWYQQKPGQAPRLLIYGASSRATGIPDRFSGSGSGTDFTLTISRLEPEDFAVYYCQQYDHSAGWTFGQGTKVEIK
B3: L1000H1035 (antibody, V domains shown)
VH: B1 VH with E6Q, F35H, S58N, T90M, P103D, W104Y
VL: not shown
B4: L1000H1032 (antibody, V domains shown)
VH: B1 VH with H13Q, G24A, S58N, T90M
VL: not shown
B5: L1000H1027 (antibody, V domains shown)
VH: B1 VH with G24A
VL: not shown
B6: L1020H1016 (antibody, V domains shown)
VH: B1 VH with E6Q, S58N, T90M
VL: B2 VL
B7: L1016H1000 (antibody, V domains shown)
VH: B1 VH with E6Q, S58N, T90M, P103D, W104Y
VL: B2 VL with Y50F, A96P, G97P
B8: L1012H1029 (antibody, V domains shown)
VH: B1 VH with H13Q, G24A, T90M
VL: not shown
B9: L1020H1000 (antibody, V domains shown)
VH: B1 VH with E6Q, S58N, T90M, P103D, W104Y
VL: B2 VL
B10: L1000H1024 (antibody, V domains shown)
VH: B1 VH with E6Q, H13Q
VL: not shown
B11: L1000H1029 (antibody, V domains shown)
VH: B1 VH with H13Q, G24A, T90M
VL: not shown
B12: L1021H1000 (antibody, V domains shown)
VH: B1 VH with E6Q, S58N, T90M, P103D, W104Y
VL: B2 VL with Y50F, T57P
B13: L1010H1000 (antibody, V domains shown)
VH: B1 VH with E6Q, S58N, T90M, P103D, W104Y
VL: not shown
B14: L1012H1007 (antibody, V domains shown)
VH: B1 VH with E6Q, T90M, P103D, W104Y
VL: not shown
B15: L1008H1000 (antibody, V domains shown)
VH: B1 VH with E6Q, S58N, T90M, P103D, W104Y
VL: not shown
B16: L1020H1027 (antibody, V domains shown)
VH: B1 VH with G24A
VL: B2 VL
B17: L1000H1031 (antibody, V domains shown)
VH: B1 VH with H13Q, G24A, P103D, W104Y
VL: not shown
B18: L1000H1028 (antibody, V domains shown)
VH: B1 VH with E6Q, H13Q, G24A
VL: not shown
B19: L1013H1000 (antibody, V domains shown)
VH: B1 VH with E6Q, S58N, T90M, P103D, W104Y
VL: B2 VL with S31N, Y50F, A96P, G97P
B20: L1021H1016 (antibody, V domains shown)
VH: B1 VH with E6Q, S58N, T90M
VL: B2 VL with Y50F, T57P
B21: L1015H1000 (antibody, V domains shown)
VH: B1 VH with E6Q, S58N, T90M, P103D, W104Y
VL: B2 VL with Y50F, T57P, A96P, G97P
B22: L1020H1007 (antibody, V domains shown)
VH: B1 VH with E6Q, T90M, P103D, W104Y
VL: B2 VL
B23: L1000H1037 (antibody, V domains shown)
VH: B1 VH with E6Q, S58N, N73E, T90M, P103D, W104Y
VL: not shown
B24: L1021H1020 (antibody, V domains shown)
VH: B1 VH with E6Q, T90M
VL: B2 VL with Y50F, T57P
B25: L1001H1000 (antibody, V domains shown)
VH: B1 VH with E6Q, S58N, T90M, P103D, W104Y
VL: B2 VL with S31N, T57P
B26: L1000H1026 (antibody, V domains shown)
VH: B1 VH with H13Q
VL: not shown
B27: L1000H1025 (antibody, V domains shown)
VH: B1 VH with E6Q, G24A
VL: not shown
B28: L1007H1000 (antibody, V domains shown)
VH: B1 VH with E6Q, S58N, T90M, P103D, W104Y
VL: not shown
B29: L1021H1007 (antibody, V domains shown)
VH: B1 VH with E6Q, T90M, P103D, W104Y
VL: B2 VL with Y50F, T57P
B30: L1000H1030 (antibody, V domains shown)
VH: B1 VH with H13Q, G24A, S58N
VL: not shown
B31: L1021H1027 (antibody, V domains shown)
VH: B1 VH with G24A
VL: B2 VL with Y50F, T57P
B32: L1020H1029 (antibody, V domains shown)
VH: B1 VH with H13Q, G24A, T90M
VL: B2 VL
B33: L1009H1000 (antibody, V domains shown)
VH: B1 VH with E6Q, S58N, T90M, P103D, W104Y
VL: not shown
B34: L1019H1000 (antibody, V domains shown)
VH: B1 VH with E6Q, S58N, T90M, P103D, W104Y
VL: B2 VL with S31N, Y50F
B35: L1000H1036 (antibody, V domains shown)
VH: B1 VH with E6Q, K43E, S58N, T90M, P103D, W104Y
VL: not shown
B36: L1012H1031 (antibody, V domains shown)
VH: B1 VH with H13Q, G24A, P103D, W104Y
VL: not shown
B37: L1012H1000 (antibody, V domains shown)
VH: B1 VH with E6Q, S58N, T90M, P103D, W104Y
VL: not shown
B38: L1011H1000 (antibody, V domains shown)
VH: B1 VH with E6Q, S58N, T90M, P103D, W104Y
VL: B2 VL with S31N, Y50F, T57P, D93G, H94S, A96P, G97P
B39: L1020H1020 (antibody, V domains shown)
VH: B1 VH with E6Q, T90M
VL: B2 VL
B40: L1017H1000 (antibody, V domains shown)
VH: B1 VH with E6Q, S58N, T90M, P103D, W104Y
VL: not shown
B41: L1012H1020 (antibody, V domains shown)
VH: B1 VH with E6Q, T90M
VL: not shown

What follows are binders tested against T1, soluble human IL-4Rα (sIL-4Rα; PEPRO TECH, Catalog Number: 200-04R) (human, UniProt P24394 26-232) (assay: ELISA, coated sIL-4Rα, culture supernatant).
T1 construct: Bought protein; also called shIL-4Rα; soluble hIL-4 Rα
T1 sequence: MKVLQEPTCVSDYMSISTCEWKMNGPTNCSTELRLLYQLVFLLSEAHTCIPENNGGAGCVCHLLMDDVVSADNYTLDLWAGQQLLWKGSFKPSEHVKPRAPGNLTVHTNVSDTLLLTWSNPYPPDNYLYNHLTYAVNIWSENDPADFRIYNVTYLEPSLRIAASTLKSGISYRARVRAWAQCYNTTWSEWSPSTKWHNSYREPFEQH
Description: Sample to be tested: For each antibody of the present invention, 10 μl and 2 μl of the culture supernatant of Expi293 cells expressing the antibody after transient transfection (the medium was Expi293 Expression Medium, Invitrogen, Catalog Number: A1435102; suspension culture was performed for 4 days at 100 rpm in a 8% CO2 incubator) were respectively added to 990 μl and 998 μl of PBS to prepare antibody samples to be tested of 1:100 and 1:500 dilutions.
100 μl of 100 μg/ml sIL-4Rα solution was added to 9.90 ml of PBS, mixed up and down, and then an antigen coating buffer of 1.0 μg/ml was obtained. The prepared antigen coating buffer was added to a 96-well ELISA plate (Corning) with a volume of 100 μl per well. The 96-well ELISA plate was incubated overnight in a refrigerator at 4° C. On the next day, the solution therein was discarded, and PBS containing 2% BSA was added to the 96-well ELISA plate row by row with a volume of 300 μl per well. The 96-well ELISA plate was incubated for 2 hours in a refrigerator at 4° C. Then the PBS containing 2% BSA was discarded and the plate was washed 3 times with PBST. Diluted antibodies to be tested were sequentially added to the corresponding wells, while the normal cell culture supernatants, as negative control samples, were added too. Three duplicate wells were made for each sample with a volume of 100 μl per well. The ELISA plate was wrapped with preservative film (or covered) and incubated for 1 h at 10° C. in a constant temperature incubator. Subsequently, the 96-well ELISA plate was taken out, and the solution therein was discarded. After washing with PBST for 3 times, TMB solution (Solarbio, Catalog Number: PR1200) was added to the 96-well ELISA plate row by row with a volume of 100 μl per well. The 96-well ELISA plate was placed at room temperature for 5 minutes, and 2 M H2SO4 solution was added in immediately to terminate the reaction. The 96-well ELISA plate was placed in flexstation 3 (Molecular Devices), the values of OD450 were read, and the data were collected, calculated and analyzed. Results were expressed relative to the affinity of control antibody 1.

Q: Which “OD450/OD450 Control antibody 1” value does the source give for B1 here?
A: Its value is 0.63 ratio to control antibody 1.

Q: How did the “OD450/OD450 Control antibody 1” value turn out when B2 was run?
A: Its value is 1.12 ratio to control antibody 1.

Q: How did the “OD450/OD450 Control antibody 1” value turn out when B3 was run?
A: Its value is 0.22 ratio to control antibody 1.

Q: B4 was tested. Which “OD450/OD450 Control antibody 1” value did it give?
A: The value was 0.53 ratio to control antibody 1.

Q: For B5, which “OD450/OD450 Control antibody 1” value is on record?
A: Its value is 0.44 ratio to control antibody 1.

Q: With B6 as the binder, how does the “OD450/OD450 Control antibody 1” value read?
A: The value was 0.8 ratio to control antibody 1.

Q: Which “OD450/OD450 Control antibody 1” value does the source give for B7 here?
A: Its value is 0.27 ratio to control antibody 1.

Q: For B8, which “OD450/OD450 Control antibody 1” value is on record?
A: The value was 0.11 ratio to control antibody 1.

Q: For B9, which “OD450/OD450 Control antibody 1” value is on record?
A: The value was 2.27 ratio to control antibody 1.

Q: How did the “OD450/OD450 Control antibody 1” value turn out when B10 was run?
A: The value was 0.26 ratio to control antibody 1.

Q: For B11, which “OD450/OD450 Control antibody 1” value is on record?
A: Its value is 0.8 ratio to control antibody 1.

Q: With B12 as the binder, how does the “OD450/OD450 Control antibody 1” value read?
A: The value was 2.42 ratio to control antibody 1.

Q: With B13 as the binder, how does the “OD450/OD450 Control antibody 1” value read?
A: The value was 1 ratio to control antibody 1.

Q: For B14, which “OD450/OD450 Control antibody 1” value is on record?
A: The value was 0.4 ratio to control antibody 1.

Q: Which “OD450/OD450 Control antibody 1” value does the source give for B15 here?
A: Its value is 0.9 ratio to control antibody 1.

Q: Which “OD450/OD450 Control antibody 1” value does the source give for B16 here?
A: The value was 0.4 ratio to control antibody 1.

Q: How did the “OD450/OD450 Control antibody 1” value turn out when B17 was run?
A: The value was 1.14 ratio to control antibody 1.

Q: How did the “OD450/OD450 Control antibody 1” value turn out when B18 was run?
A: The value was 0.33 ratio to control antibody 1.

Q: Which “OD450/OD450 Control antibody 1” value does the source give for B19 here?
A: The value was 0.24 ratio to control antibody 1.

Q: Which “OD450/OD450 Control antibody 1” value does the source give for B20 here?
A: The value was 0.63 ratio to control antibody 1.

Q: For B21, which “OD450/OD450 Control antibody 1” value is on record?
A: Its value is 0.67 ratio to control antibody 1.

Q: B22 was tested. Which “OD450/OD450 Control antibody 1” value did it give?
A: The value was 0.4 ratio to control antibody 1.

Q: For B23, which “OD450/OD450 Control antibody 1” value is on record?
A: The value was -0.01 ratio to control antibody 1.

Q: B24 was tested. Which “OD450/OD450 Control antibody 1” value did it give?
A: The value was 0.24 ratio to control antibody 1.

Q: Which “OD450/OD450 Control antibody 1” value does the source give for B25 here?
A: Its value is 1.56 ratio to control antibody 1.

Q: For B26, which “OD450/OD450 Control antibody 1” value is on record?
A: Its value is 0.11 ratio to control antibody 1.

Q: For B27, which “OD450/OD450 Control antibody 1” value is on record?
A: The value was 0.21 ratio to control antibody 1.

Q: How did the “OD450/OD450 Control antibody 1” value turn out when B28 was run?
A: The value was 0.8 ratio to control antibody 1.

Q: B29 was tested. Which “OD450/OD450 Control antibody 1” value did it give?
A: Its value is 0.44 ratio to control antibody 1.

Q: With B30 as the binder, how does the “OD450/OD450 Control antibody 1” value read?
A: Its value is 0.2 ratio to control antibody 1.

Q: Which “OD450/OD450 Control antibody 1” value does the source give for B31 here?
A: Its value is 0.29 ratio to control antibody 1.

Q: B32 was tested. Which “OD450/OD450 Control antibody 1” value did it give?
A: The value was 1.01 ratio to control antibody 1.

Q: With B33 as the binder, how does the “OD450/OD450 Control antibody 1” value read?
A: Its value is 0.64 ratio to control antibody 1.

Q: Which “OD450/OD450 Control antibody 1” value does the source give for B34 here?
A: Its value is 1.79 ratio to control antibody 1.

Q: How did the “OD450/OD450 Control antibody 1” value turn out when B35 was run?
A: The value was 0.1 ratio to control antibody 1.

Q: B36 was tested. Which “OD450/OD450 Control antibody 1” value did it give?
A: Its value is 0.16 ratio to control antibody 1.

Q: With B37 as the binder, how does the “OD450/OD450 Control antibody 1” value read?
A: The value was 1.22 ratio to control antibody 1.

Q: Which “OD450/OD450 Control antibody 1” value does the source give for B38 here?
A: The value was 0.9 ratio to control antibody 1.

Q: B39 was tested. Which “OD450/OD450 Control antibody 1” value did it give?
A: The value was 0.26 ratio to control antibody 1.

Q: With B40 as the binder, how does the “OD450/OD450 Control antibody 1” value read?
A: Its value is 0.49 ratio to control antibody 1.

Q: With B41 as the binder, how does the “OD450/OD450 Control antibody 1” value read?
A: The value was 0.11 ratio to control antibody 1.
